Measurements: article PMC7375048, “The impact of acute rosiglitazone on insulin pharmacokinetics at the blood‐brain barrier” (Endocrinology, Diabetes & Metabolism, 2020)
Counter-ions that a name gives are not always drawn.

Legend:
[1] = tested on: brain capillary sequestration; type: in vivo, mouse
Experimental: Two and a half minutes later, blood was collected from the carotid, the mice decapitated and the whole brain removed. […] Homogenates were then centrifuged at 3500 g for 20 minutes at 4°C with a swinging bucket rotor (Beckman Coulter). The brain capillary fraction contained in the pellet and the supernatant containing the brain parenchyma were carefully separated. […] Fractions were expressed as percentages of total brain.

murine BBB [2] = experiment: Transcardiac brain perfusion of 125I-insulin, multiple-time regression analysis; conditions: mouse, in vivo
Source text: (§1) This experimental set‐up was based on previous studies investigating the acute effect of rosiglitazone. ^35 , ^36
The perfusate was freshly prepared for each study day. Perfusate was collected throughout the study to determine the average cpm/µL of perfusate. After perfusion, the olfactory bulb was collected and the brain dissected into regions (frontal/parietal/occipital cortex, striatum, hypothalamus, hippocampus, thalamus, cerebellum, midbrain and pons/medulla) according to Glowinski and Iversen; ^38 each region was weighed separately. The amount of radioactivity was determined by a gamma counter (Wizard2, Perkin Elmer). Brain/perfusate ratios are calculated by dividing the cpm in a gram of brain by the cpm in a µL of perfusate to yield units of µL/g.
Exposure time is calculated by the formula:(1) Exposure time=∫0tCp(t)dt/Cp(t) where Cp(t) is the level of radioactivity (cpm) in serum at time (t). Exposure time corrects for the clearance of peptide from the blood. […] The slope of the linearity measures K i and is reported with its standard error term. The y‐intercept of the linearity measures V i, the initial volume of distribution in brain at t = 0. ^37 Blasberg, Fenstermacher and Patlak originally described V i as the volume of test substance that rapidly and reversibly exchanges with the plasma (Blasberg 1983). For cardiac perfusion studies, formula 2 is employed, using the brain/perfusate ratios and the clock time is used in place of exposure time.

[3] = mouse, in vivo, iv
Experimental: (§2) Mice were decapitated, and the brain was collected immediately, dissected into the hypothalamus, olfactory bulb and remaining whole brain and weighed. Blood was centrifuged at 5400g for 10 min and serum collected. Radioactivity in 50 µL of serum and entire brain samples were counted in a gamma counter (Wizard2; Perkin Elmer).

murine BBB [4] = experiment: Blood-to-brain 125I-insulin transport, multiple-time regression analysis; type: in vivo, mouse
Experimental: as §1, §2
Exposure time is calculated by the formula:(1) Exposure time=∫0tCp(t)dt/Cp(t) where Cp(t) is the level of radioactivity (cpm) in serum at time (t). Exposure time corrects for the clearance of peptide from the blood. […] The slope of the linearity measures K i and is reported with its standard error term. […] For cardiac perfusion studies, formula 2 is employed, using the brain/perfusate ratios and the clock time is used in place of exposure time.

P‐glycoprotein = conditions: cited from earlier work
Source text: (§3) However, we were interested in the direct effect that would be mediated at the luminal surface of the brain endothelial cell, rather than an effect within the CNS. Indeed, PPARγ activation is known to have a direct effect on cerebral vascular expression of proteins, including various adhesion molecules and metalloproteinases. ^61 Therefore, we know brain en ...

murine BBB [5] = conditions: mouse, in vivo, iv; cited from earlier work
Source text: as §3

effect on 125I-insulin vascular binding (V i), whole brain (murine BBB [4]; 1 µg S961 (P = .0006), 10 µg RSG pretreatment with S961 (P = .044), two-way ANOVA, Sidak) | effect on 125I-insulin vascular binding (V i), hypothalamus (murine BBB [4]; 1 µg S961 (P = .002), 10 µg RSG pretreatment with S961 (P = .025), two-way ANOVA, Sidak) | Compound | fraction of radioactivity in brain parenchyma vs capillary fraction ([1]; mouse, in vivo, iv) | BBB transport rate K i following cardiac perfusion, hypothalamus (murine BBB [2]) [µL/g‐min] | BBB transport rate K i following cardiac perfusion, olfactory bulb (murine BBB [2]) [µL/g‐min] | change of hypothalamic BBB transport rate in the absence of serum (murine BBB [2]) | vascular binding V i following cardiac perfusion, hypothalamus (murine BBB [2]) [µL/g] | vascular binding V i following cardiac perfusion, olfactory bulb (murine BBB [2]) [µL/g] | average half‐time clearance from blood [3] [min] | BBB transport rate K i, hypothalamus (murine BBB [4]; mouse, in vivo) [µL/g‐min] | average rate of transport K i, hypothalamus (murine BBB [4]; mouse, in vivo) [µL/g‐min] | average rate of transport K i, olfactory bulb (murine BBB [4]; mouse, in vivo) [µL/g‐min] | vascular binding V i, hypothalamus (murine BBB [4]; mouse, in vivo) [µL/g] | vascular binding V i, olfactory bulb (murine BBB [4]; mouse, in vivo) [µL/g] | BBB transport rate K i, whole brain (murine BBB [4]; mouse, in vivo, iv) [µL/g‐min] | P‐glycoprotein interaction (P‐glycoprotein) | penetration of the murine BBB (murine BBB [5]) | time of brain uptake (murine BBB [5]) [min] | effect on capillary/parenchyma distribution of 125I-insulin ([1]; 10 µg RSG pretreatment, data not shown) | effect on rate of 125I-insulin BBB transport (murine BBB [4]; whole brain, olfactory bulb, hypothalamus, 10 µg RSG pretreatment, 1 µg S961 co-injected)
 |  | 125I‐insulin: human insulin (Sigma‐Aldrich) radioactively labelled with 125I by the chloramine‐T method | majority | 6.11 ± 1.92 | 3.34 ± 1.31 | nearly tripled | -4.5 ± 5.7 | 13.5 ± 4.4 | 1.54 | 1.39 ± 0.28 | 1.75 | 2.25 | 11.6 ± 2.0 | 10.4 ± 4.8 | 1.26 ± 0.17 |  |  |  |  | 
prevented this decrease in binding | prevented this decrease in binding | CN(CCOc1ccc(CC2SC(=O)NC2=O)cc1)c1ccccn1 (centres unmarked) [RSG, rosiglitazone maleate] |  |  |  |  |  |  |  |  |  |  |  |  |  | substrate of p‐glycoprotein | 0.045 % of an iv injected dose | ≤ 1 | no overt differences | did not significantly alter
